Measured values from US20040038400A1 (TRUSTEES OF DARTMOUTH COLLEGE, published 2004).

Target: T1, WC-1 (Neurospora, UniProt Q01371 1-1167)
T1 construct: Tested either as native protein in Neurospora nuclear extracts or as 'full-length WC-1' made in reticulocyte lysate; also called White Collar-1; WC-1 protein
Assay: EMSA supershift with nuclear extracts; complexes absent with extracts from wc-1 ER45 or wc-2 KO strains
Description: The presence of WC-1 and WC-2 in the LRE-bound complexes was confirmed by the absence of complexes in binding reactions performed using nuclear protein extracts from wc-1^ER45 (loss-of-function) or wc-2^KO strains (Collett, et al. (2002) Genetics 160:149). […] Because WC-1 and WC-2 are known to complex with FRQ (Denault, et al. (2001) EMBO J. 20:109; Cheng, et al. (2001) EMBO J. 20:101; Merrow, et al. (2001) EMBO J. 20:307), the presence of FRQ in the complexes bound to the LREs was also determined using FRQ antiserum and extracts from an frq^KO strain. FRQ was not in the dark- or light-induced complexes bound to the LREs, nor was FRQ necessary for the formation of the complexes.
Binding reactions using nuclear protein extracts contained 1× binding buffer, […] KCl, 0.1 μg poly(dI-dC), 1 μl probe, 0.5 μl of normal rabbit sera (Pocono Rabbit Farm, Canadensis, Pa.), and 3 μg of nuclear protein extract, which was added last to the binding reactions, in a total volume of 20 μl. In reactions that contained antisera, 1 μl anti-WC-1, 1 μl anti-WC-2, or 0.5 μl anti-FRQ was used. Binding reactions using in vitro translated proteins contained 1× binding buffer, 1 μg poly(dI-dC), 1 μl probe, and 6 μl of the in vitro translation reaction in a total volume of 20 μl. […]

T1 sequence (Q01371 whole entry): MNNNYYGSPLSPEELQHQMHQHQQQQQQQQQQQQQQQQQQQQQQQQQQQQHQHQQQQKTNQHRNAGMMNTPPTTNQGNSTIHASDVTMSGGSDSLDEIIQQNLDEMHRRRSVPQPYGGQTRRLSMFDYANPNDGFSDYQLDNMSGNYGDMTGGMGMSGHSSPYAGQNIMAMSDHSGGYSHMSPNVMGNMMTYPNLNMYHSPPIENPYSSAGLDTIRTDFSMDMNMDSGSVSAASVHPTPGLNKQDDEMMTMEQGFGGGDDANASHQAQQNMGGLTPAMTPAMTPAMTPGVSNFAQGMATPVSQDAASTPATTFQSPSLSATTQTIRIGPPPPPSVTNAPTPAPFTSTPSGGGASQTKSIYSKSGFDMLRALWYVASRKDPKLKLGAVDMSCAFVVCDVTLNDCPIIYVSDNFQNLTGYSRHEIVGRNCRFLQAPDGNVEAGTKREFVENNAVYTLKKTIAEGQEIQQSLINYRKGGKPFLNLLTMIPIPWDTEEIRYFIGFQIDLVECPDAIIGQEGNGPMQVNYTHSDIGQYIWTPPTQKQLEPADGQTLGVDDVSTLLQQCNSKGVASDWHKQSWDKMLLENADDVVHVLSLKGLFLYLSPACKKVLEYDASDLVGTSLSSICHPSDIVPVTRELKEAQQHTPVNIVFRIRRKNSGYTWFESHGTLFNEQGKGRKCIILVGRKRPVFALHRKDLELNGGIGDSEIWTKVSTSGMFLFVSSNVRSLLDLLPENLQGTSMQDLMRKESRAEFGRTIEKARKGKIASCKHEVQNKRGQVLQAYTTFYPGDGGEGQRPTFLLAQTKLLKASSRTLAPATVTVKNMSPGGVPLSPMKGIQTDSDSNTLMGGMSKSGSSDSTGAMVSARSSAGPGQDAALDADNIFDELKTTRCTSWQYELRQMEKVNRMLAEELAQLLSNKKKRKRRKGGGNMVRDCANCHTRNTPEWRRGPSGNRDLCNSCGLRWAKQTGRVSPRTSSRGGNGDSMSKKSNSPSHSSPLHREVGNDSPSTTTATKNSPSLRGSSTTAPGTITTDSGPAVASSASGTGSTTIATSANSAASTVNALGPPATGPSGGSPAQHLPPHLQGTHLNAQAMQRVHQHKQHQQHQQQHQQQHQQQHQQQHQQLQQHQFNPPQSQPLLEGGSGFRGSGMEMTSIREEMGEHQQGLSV

binding result: binds
B1: WC-2 (other, Neurospora, UniProt P78714 1-530, looked up)
chain: MSHGQPPPGSSMYGFGAMGMGSGMGSGMGSGMGTGMGTGMGTGMSASQMTSDPQDMMSLLDTSVFPGFDGMSMSLDVGDSMSNPFTPVSVPPPLPAGNAGPSHVGVCGGHGAPDQLFSPDDLIATSMSSAGPMIATPTTTTSGPSGGPSSGGGSTLTEFTKRRNWPAKVVEELQDWEHILDANGRIKHVSPSVEPLTGYKPPEIIDLFLRDLIHPDDVGVFTAELNEAIATGSQLRLFYRFRKKDGNWTIFETVGHAHIAAAKFAPNPQNQSPFCQAVFMMARPYPTKNAGLLDSFLEHKIENERLKRRIAELRREEQEEQEESHRTWRMSQEGRSDVTPSDDTATQMGMTPFYIPMNAQADVMMPPPSQPASSLNIALTRENLEGIAGSRPDSIREKMLRYEGNHADTIEMLTGLKYQEGERSHGITTGNASPTLIKGDAGIAIPLDRDPRTGEKKKKIKVAEEYVCTDCGTLDSPEWRKGPSGPKTLCNACGLRWAKKEKKKNANNNNNGGGIGGHNDIHTPMGDHMG
notes: Transcription factor; Tested either as native protein in Neurospora nuclear extracts or as 'full length WC-2' made in reticulocyte lysate; also called White Collar-2; WC-2 protein
